Results published in patent US20110318353A1 (Janssen / Centocor, published 2011).
Where a chain is given by its changes, count along the chain named. Read-outs that look alike come from different tables or passages of the source.

How the values were obtained:
human IL-25 [1] = target: T1, human IL-25 (human, UniProt Q9H293 33-177); test: Receptor inhibition (column sub-head 'Panel A/ B'): bead-based ECLIA, inhibition of IL-25 binding to the IL-25 receptor
T1 sequence: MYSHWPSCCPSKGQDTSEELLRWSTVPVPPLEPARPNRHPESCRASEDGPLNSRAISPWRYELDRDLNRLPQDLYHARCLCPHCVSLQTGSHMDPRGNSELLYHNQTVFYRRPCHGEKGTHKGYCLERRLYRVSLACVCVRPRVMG
Excerpt: (§1) The Fabs were converted to mAbs as follows. A combinatorial library of 5 different light chains and 5 different heavy chains (including the huDDG91 light and heavy chains) was designed. The light and heavy chains used in the library differed from one another in the light chain CDR1 and CDR3 amino acid sequences and the heavy chain CDR 3 sequence. Using these light and heavy chains, a total of 25 mAbs (IgG1) were constructed, expressed in HEK293 cells at small scale and purified. Each of the mAbs was tested for IL-25 binding affinity, cellular inhibition, and receptor inhibition as follows: [0149] IL-25 binding affinity was determined using standard IL-25 ELISA and Biacore binding assays. […] Cellular inhibition was assessed using a standard TK-10 human renal carcinoma cell-based assay (IL-25 responsive; IL-25 and IL-8 readout; capable of discerning difference between soluble IL-25R and parental mAb) and a CD4+ T cell-based assay. […] Receptor inhibition was assessed using a modified bead-based electrochemiluminescence immunoassay (ECLIA). Candidates causing a greater than 3-fold decrease in IC₅₀ of IL-25 binding to receptor relative to parental huDDG91 antibody at a 10 nM mAb concentration were selected.

human IL-25 [2] = target: T1, human IL-25; test: Biacore, 7200 sec dissociation
Excerpt: as §1

human IL-25 [3] = target: T1, human IL-25
human IL-25 [4] = target: T1, human IL-25; test: Biacore, 7200 sec dissociation; second R71V G1 row, printed in italics = number from a different data set
human IL-25 [5] = target: T1, human IL-25; test: Receptor inhibition (column sub-head 'Panel A/ B'): bead-based ECLIA, inhibition of IL-25 binding to the IL-25 receptor; lower end of the range
Excerpt: as §1

human IL-25 [6] = target: T1, human IL-25; test: Receptor inhibition (column sub-head 'Panel A/ B'): bead-based ECLIA, inhibition of IL-25 binding to the IL-25 receptor; upper end of the range
Excerpt: as §1

human IL-25 [7] = target: T1, human IL-25; test: Biacore, 7200 sec dissociation; first R71V G1 row
Excerpt: as §1

human IL-25 [8] = target: T1, human IL-25; test: cell-based or functional assay
human IL-25 [9] = target: T1, human IL-25; test: Biacore, 7200 sec dissociation; printed in italics = number from a different data set
human IL-25 [10] = target: T1, human IL-25; test: receptor inhibition: IL-25 binding to receptor, bead-based ECLIA
cynomolgus monkey IL-25 = target: T2, cynomolgus monkey IL-25 (cynomolgus monkey, UniProt G7P9V9 33-176); test: species cross-reactivity criterion; method not stated
T2 construct: also called cynoIL-25; cyno IL-25
T2 sequence: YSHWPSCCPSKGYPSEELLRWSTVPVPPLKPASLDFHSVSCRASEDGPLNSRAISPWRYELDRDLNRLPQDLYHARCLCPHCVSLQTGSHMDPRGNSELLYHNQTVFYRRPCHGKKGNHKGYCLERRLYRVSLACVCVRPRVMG

IL-17BR (receptor)
IC50 (human IL-25 [1]): 0.063 nM
Kd (human IL-25 [2]): 0.017 nM
Cellular inhibition, fold change (human IL-25 [3]): 1 fold change

B1: huDDG91 antibody (antibody, V domains shown)
VH: EVQLVESGAEVKKPGASVKVSCKASGYSFSGYTMNWVRQAPGQRLEWMGLINPYNGGTSYNQNFKGRVTLTVDTSASTAYLELNSLRSEDTGVYYCAREDYDGYLYFAMDYWGQGTLVTVS
VL: DIQMTQSPSSLSASVGDRVTITCSASQGISNYLNWYQQKPGKVPKLLIYYTSSLHSGVPSRFSGSGSGTDFTLTISSLQPEDVATYYCQQYSKLPYTFGQGTKLEIK
notes: Humanized (CDR-grafted) version of murine 2C3; also called RH2.5_R71V; M9
Kd (human IL-25 [4]): 0.136 nM
IC50 (human IL-25 [5]): ≥ 0.0452 nM
IC50 (human IL-25 [6]): ≤ 0.0643 nM
Kd (human IL-25 [7]): 0.194 nM

B2: I25M31 (antibody, V domains shown)
VH: B1 VH with Y101F, G103S, Y104W, L105T
VL: B1 VL
notes: One of the 9 candidate IgG1 mAbs of the combinatorial library based on huDDG91
IC50 (human IL-25 [1]): 0.018 nM
Kd (human IL-25 [2]): 0.04 nM
Cellular inhibition, fold change (human IL-25 [8]): 12 fold change

B3: I25M10 (antibody, V domains shown)
VH: B1 VH with Y101F, G103S, Y104W, L105T, Y106F
VL: B1 VL with S92L, K93A, L94F
notes: as for B2
IC50 (human IL-25 [1]): 0.014 nM
Kd (human IL-25 [2]): 0.036 nM
Cellular inhibition, fold change (human IL-25 [8]): 5 fold change

B4: I25M20 (antibody, V domains shown)
VH: B1 VH with G103S, Y104W, L105T, Y106F
VL: B1 VL with S92L, K93A, L94F
notes: as for B2
IC50 (human IL-25 [1]): 0.013 nM
Kd (human IL-25 [9]): 0.045 nM
Cellular inhibition, fold change (human IL-25 [8]): 20 fold change

B5: I25M30 (antibody, V domains shown)
VH: B1 VH with Y101F, G103S, Y104W, L105T
VL: B1 VL with S30H, N31W, Y32N, Y91F, S92N, K93S, L94F
notes: as for B2
IC50 (human IL-25 [1]): 0.02 nM
Kd (human IL-25 [2]): 0.044 nM
Cellular inhibition, fold change (human IL-25 [8]): 3 fold change

B6: I25M32 (antibody, V domains shown)
VH: B1 VH with G103S, Y104W, L105T, Y106F
VL: B1 VL with S30N, N31E, S92I, K93N, L94F
notes: as for B2
IC50 (human IL-25 [1]): 0.011 nM
Kd (human IL-25 [2]): 0.087 nM
Cellular inhibition, fold change (human IL-25 [8]): 4 fold change

B7: I25M34 (antibody, V domains shown)
VH: B1 VH with Y101F, G103S, Y104W, L105T
VL: B1 VL with S30N, N31E, S92I, K93N, L94F
notes: as for B2
IC50 (human IL-25 [1]): 0.013 nM
Kd (human IL-25 [2]): 0.064 nM
Cellular inhibition, fold change (human IL-25 [8]): 7 fold change

B8: I25M28 (antibody, V domains shown)
VH: B1 VH with Y101F, G103S, Y104W, L105T
VL: B1 VL with S92L, K93A, L94F
notes: as for B2
IC50 (human IL-25 [1]): 0.014 nM
Kd (human IL-25 [2]): 0.019 nM
Cellular inhibition, fold change (human IL-25 [8]): 16 fold change

B9: I25M11 (antibody, V domains shown)
VH: B1 VH with Y101F, G103S, Y104W, L105T, Y106F
VL: B1 VL with S30A, N31S, Y32F, K93S, L94F
notes: as for B2
IC50 (human IL-25 [1]): 0.014 nM
Kd (human IL-25 [2]): 0.057 nM
Cellular inhibition, fold change (human IL-25 [8]): 5 fold change

B10: M6 antibody (antibody, human IgG1, kappa, V domains shown)
VH: EVQLVESGAEVKKPGASVKVSCKASGYSFSGYTMNWVRQAPGQRLEWMGLINPYNGGTSYNQNFKGRVTLTVDTSASTAYLELNSLRSEDTGVYYCAREDYDGYLYFAMDYWGQGTLVTVSS
VL: DIQMTQSPSSLSASVGDRVTITCSASQGISNYLNWYQQKPGKVPKLLIYYTSSLHSGVPSRFSGSGSGTDFTLTISSLQPEDVATYYCQQYLAFPYTFGQGTKLEIKR
notes: Humanized IgG1 mAb with kappa light chain, a variant of huDDG91 with three substitutions in light chain CDR3
fold decrease in IC50 compared to huDDG91 (human IL-25 [10]): > 3 fold
IC50 (human IL-25 [1]): 0.012 nM
Kd (human IL-25 [2]): 0.053 nM
affinity relative to that for human IL-25 (cynomolgus monkey IL-25): ≤ 5 fold
Cellular inhibition, fold change (human IL-25 [8]): 4 fold change
